Experimental data reported in patent publication US20170121382A1 (NORTHWESTERN UNIVERSITY, published 2017).

Biological target: T1, PHEX (phosphate-regulating gene with homology to endopeptidase on the X chromosome), endogenous mouse protein (mouse, UniProt P70669 1-749)
T1 construct: Endogenous PHEX of mouse bone extracts (coIP); The same id stands for the endogenous PHEX of mouse MC3T3-E1 cells and of mice in the functional rows; also called bone metallo-endopeptidase PHEX
T1 sequence (looked up): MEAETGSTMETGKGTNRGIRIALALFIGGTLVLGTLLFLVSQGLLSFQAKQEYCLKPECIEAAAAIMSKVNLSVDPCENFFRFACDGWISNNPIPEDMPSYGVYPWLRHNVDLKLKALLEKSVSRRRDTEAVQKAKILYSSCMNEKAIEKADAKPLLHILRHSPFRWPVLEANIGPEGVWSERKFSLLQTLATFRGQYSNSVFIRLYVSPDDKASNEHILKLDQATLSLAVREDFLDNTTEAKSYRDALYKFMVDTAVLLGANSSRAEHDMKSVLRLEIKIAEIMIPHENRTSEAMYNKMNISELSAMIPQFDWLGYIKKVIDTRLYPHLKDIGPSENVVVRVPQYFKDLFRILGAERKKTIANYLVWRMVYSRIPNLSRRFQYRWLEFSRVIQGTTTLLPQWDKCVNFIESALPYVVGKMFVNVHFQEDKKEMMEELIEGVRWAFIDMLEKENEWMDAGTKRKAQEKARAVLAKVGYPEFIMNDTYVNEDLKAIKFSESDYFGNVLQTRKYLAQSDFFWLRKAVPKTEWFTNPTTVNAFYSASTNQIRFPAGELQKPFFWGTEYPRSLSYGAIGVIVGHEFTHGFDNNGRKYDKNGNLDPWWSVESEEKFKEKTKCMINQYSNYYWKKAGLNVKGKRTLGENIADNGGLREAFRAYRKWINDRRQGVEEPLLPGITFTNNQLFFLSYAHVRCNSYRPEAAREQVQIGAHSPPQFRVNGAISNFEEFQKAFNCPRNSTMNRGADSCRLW
Assay: coIP, anti-PHEX antibody-coated beads, mouse bone extracts, Western blot for DMP1
Protocol: FIGS. 4A-C. (FIG. 4A) PHEX binds to full length DMP1 and cDMP1. Bone protein extracts from WT and DMP1ko/cDMP1Tg were incubated with anti-PHEX antibody-coated beads. […] Negative control ((−) CTR) was obtained from uncoated beads to evaluate non-specific binding. […] The constant of dissociation (KD) between PHEX and the entire DMP1 protein reflecting binding affinity is as strong as the KD obtained previously between rPHEX and the small 19 amino acid MEPE-ASARM peptide. Data are normalized by non-specific binding at baseline and expressed as relative units (RU) of response difference. (FIG. 4C) Dose-dependent binding of rPHEX to rDMP1, represented by quantitation of the SPR sensorgram, confirms binding specificity.
Both PHEX and DMP1 are expressed by osteocytes. The ASARM sequence binds to PHEX. Co-immunoprecipitation (coIP) of PHEX and DMP1 were performed in endogenous bone protein extracts to test the presence of binding between PHEX and cDMP1. Magnetic beads were covalently coated with a PHEX antibody (Ab) and incubated with protein extracts isolated from WT or DMP1ko/cDMP1Tg mice. Detection of DMP1 in the protein pull-downs eluted from the beads was performed by Western Blot analysis using an Ab targeting the C-terminus region (FIG. 4A). […] In the DMP1ko/cDMP1Tg extracts in which full-length DMP1 is not expressed, only cDMP1 fragments were detected. […]

binding result: binds
B1: full-length DMP1 (dentin matrix protein 1), endogenous mouse protein, ~100 kDa (other, UniProt O55188 17-503, looked up)
chain: LPVARYHNTESESSEERTGDLAGSPPPPTNSESSEESQASPEGQANSDHTDSSESGEELGYDRGQYRPAGGLSKSTGTGADKEDDEDDSGDDTFGDEDNDLGPEEGQWGGPSKLDSDEDSTDTTQSSEDSTSQENSAQDTPSDSKDHDSEDEADSRPEAGDSTQDSESEEQRVGGGSEGESSHGDGSEFDDEGMQSDDPESTRSDRGHARMSSAGIRSEESKGDHEPTSTQDSDDSQSVEFSSRKSFRRSHVSEEDYRGELTDSNSRETQSDSTEDTASKEESRSESQEDTAESQSQEDSPEGQDPSSESSEEAGEPSQESSSESQEGVTSESRGDNPDNTSQAGDQEDSESSEEDSLNTFSSSESQSTEEQADSESNESLSLSEESQESAQDGDSSSQEGLQSQSASTESRSQESQSEQDSRSEEDSDSQDSSRSKEESNSTGSASSSEEDIRPKNMEADSRKLIVDAYHNKPIGDQDDNDCQDGY
